As a reminder, the EC50 is the concentration needed to bring the measured effect to its halfway point. A lower EC50 goes with higher potency in that assay.

Five molecules from patent publication US20240301071A1 can be followed below.

Experiment [1] deals with SIRPA v2 (CAA71403.1) (human) (UniProt P78324). In words: ELISA, plate coated with SIRP protein. For orientation: ELISA stands for enzyme-linked immunosorbent assay.
Another experiment concerns the target SIRPB1-Fc iso. 3 (human) (UniProt Q5TFQ8). In words: ELISA, plate coated with SIRP protein.
The target in experiment [2] is SIRPB1-His iso. 3 (human) (UniProt Q5TFQ8). In words: ELISA, plate coated with SIRP protein.
Experiment [3] deals with T1, human SIRPA on human macrophages (primary monocyte-derived macrophages; U937 line) (human), P78324.
Experiment [4] concerns the target T1, human SIRPA on human macrophages …. The experiment can be described thus: cell-based or functional assay.
For experiment [5], the target named is huSIPRA v.1 CAA71403.1 (human) (UniProt P78324). The experiment can be described thus: ELISA, plate coated with tagged SIRPA at 1 ug/mL.
Experiment [6] has as its target human SIRPA on human macrophages (primary monocyte-derived macrophages; U937 line) (human) (UniProt P78324). In words: cell-based or functional assay.

T1 sequence (P78324 31-504): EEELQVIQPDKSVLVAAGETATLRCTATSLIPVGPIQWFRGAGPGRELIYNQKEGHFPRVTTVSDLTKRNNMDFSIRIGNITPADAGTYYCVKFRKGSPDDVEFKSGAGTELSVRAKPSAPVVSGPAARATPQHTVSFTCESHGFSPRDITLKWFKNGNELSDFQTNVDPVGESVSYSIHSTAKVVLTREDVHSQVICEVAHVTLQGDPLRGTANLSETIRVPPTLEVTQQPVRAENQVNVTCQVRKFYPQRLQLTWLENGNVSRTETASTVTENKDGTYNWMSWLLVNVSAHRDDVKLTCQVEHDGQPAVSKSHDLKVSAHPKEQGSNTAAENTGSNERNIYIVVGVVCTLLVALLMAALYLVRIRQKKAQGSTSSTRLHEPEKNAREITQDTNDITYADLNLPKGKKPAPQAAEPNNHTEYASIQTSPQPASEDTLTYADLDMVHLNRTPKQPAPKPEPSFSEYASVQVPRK
Chain of human SIRPA on human macrophages (primary monocyte-derived macrophages; U937 line) (human) (P78324 31-504): as above
Chain of SIRPB1-His iso. 3 (human) (Q5TFQ8 30-371): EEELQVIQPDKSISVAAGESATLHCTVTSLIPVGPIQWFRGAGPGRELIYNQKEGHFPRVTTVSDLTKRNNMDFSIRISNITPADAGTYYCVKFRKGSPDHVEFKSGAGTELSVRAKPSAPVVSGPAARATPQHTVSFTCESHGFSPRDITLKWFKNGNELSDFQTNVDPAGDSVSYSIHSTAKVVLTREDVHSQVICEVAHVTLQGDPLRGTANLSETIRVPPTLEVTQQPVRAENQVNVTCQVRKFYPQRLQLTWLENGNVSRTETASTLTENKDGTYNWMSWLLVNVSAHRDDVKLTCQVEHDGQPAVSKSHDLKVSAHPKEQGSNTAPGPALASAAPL
Chain of SIRPB1-Fc iso. 3 (human) (Q5TFQ8 30-371): as above

B1: anti-SIRPA antibody 9C2 (antibody, V domains shown)
VH: EFQLQQSGAELVKPGASVKISCKASGYSLTGYNMNWVKQSRGKSLEWIGNINPHYGSSTYNQNFKDKATLTVDKSSSAAYMQFNSLTSEDSAVYYCAREGYDGVFDYWGQGTTLTVSS
VL: QIVLSQSPAILSASPGEKVTMTCRASSSVSYMHWYQQKPGSSPKPWIYVTSNLASGVPTRFSGSGSGTSYSLTISRVEAEDAATYYCQQWSSNPRTFGGGTKLEIK
For the molecule B1, the concentration for a half-maximal effect (EC50) in experiment [1] turned out to be 0.358 nM; in the experiment with SIRPB1-Fc iso. 3 (human) it was 0.382 nM; in experiment [2] it was 0.425 nM.

B2: mouse anti-SIRPA antibody m3F9 (antibody, mouse IgG1, V domains shown)
VH: EVKLVESGGGLVKPGGSLKLSCAASGFTFSSYAMSWVRQTPEKRLEWVATISDYGGSYTYYPDSVKGRFTISRDNAKYTLYLQMSSLRSEDTALYYCARPPYDDYYGGFAYWGQGTLVTVSA
VL: DIVLTQSPASLAVSLGQRATISCRASKSVSSSGYSYMHWYQQKPGQPPKLLIYLASNLESGVPARFSGSGSGTDFTLNIHPVEEEDAATYYCQHNRELPCTFGGGTKLEIK
In turn, B2 registered an IC50 (read off the curve), SIRPA downregulation on primary human macrophages, Dnr. 414 in experiment [3] of 0.04 nM. Moreover, the EC50 in experiment [1] came out at 0.353 nM. Further, the concentration for a half-maximal effect (EC50) with SIRPB1-Fc iso. 3 (human) was 0.319 nM. In experiment [2], this molecule showed a half-maximal effective concentration (EC50) of 0.435 nM. For the same molecule, in experiment [4], the Phagocytosis, fold increase over baseline activity stood at 1.51 fold; the SIRPA IC50 (nM), downregulation on U937 cells was 0.105 nM; the SIRPA IC50 (nM), downregulation on human primary macrophages is 0.00905 nM; the SIRPA Max % DR, U937 cells stood at 75%. In experiment [4], this molecule displayed an SIRPA Max % DR, human primary macrophages of 89%; an SIRPA downregulation on primary human macrophages, Donor 413 (flow cytometry) of 90%; an SIRPA downregulation on primary human macrophages, Donor 414 (flow cytometry) of 85%. In experiment [5], this molecule yielded a concentration for a half-maximal effect (EC50) of 0.789 nM.

B3: chimeric anti-SIRPA antibody 3F9 huIgG1 (antibody, V domains shown)
VH: EVKLVESGGGLVKPGGSLKLSCAASGFTFSSYAMSWVRQTPEKRLEWVATISDYGGSYTYYPDSVKGRFTISRDNAKYTLYLQMSSLRSEDTALYYCARPPYDDYYGGFAYWGQGTLVTVSA
VL: DIVLTQSPASLAVSLGQRATISCRASKSVSSSGYSYMHWYQQKPGQPPKLLIYLASNLESGVPARFSGSGSGTDFTLNIHPVEEEDAATYYCQHNRELPCTFGGGTKLEIK
In experiment [4], B3 came in with a Phagocytosis, fold increase over baseline activity of 1.77 fold; an SIRPA IC50 (nM), downregulation on U937 cells of 0.804 nM; an SIRPA IC50 (nM), downregulation on human primary macrophages of 0.172 nM; an SIRPA Max % DR, U937 cells of 68%. The SIRPA Max % DR, human primary macrophages in experiment [4] worked out at 90%.

B4: deglycosylated m3F9 anti-SIRPA antibody (antibody, mouse IgG1, V domains shown)
VH: EVKLVESGGGLVKPGGSLKLSCAASGFTFSSYAMSWVRQTPEKRLEWVATISDYGGSYTYYPDSVKGRFTISRDNAKYTLYLQMSSLRSEDTALYYCARPPYDDYYGGFAYWGQGTLVTVSA
VL: DIVLTQSPASLAVSLGQRATISCRASKSVSSSGYSYMHWYQQKPGQPPKLLIYLASNLESGVPARFSGSGSGTDFTLNIHPVEEEDAATYYCQHNRELPCTFGGGTKLEIK
modifications: here or on the partner: Fc glycan on Asn297 removed enzymatically with EndoS
In experiment [3], B4 had an IC50 (read off the curve), SIRPA downregulation on primary human macrophages, Dnr. 413 of 0.07 nM. In addition, in experiment [4], the SIRPA downregulation on primary human macrophages, Donor 413 (flow cytometry) turned out to be 70% and the SIRPA downregulation on primary human macrophages, Donor 414 (flow cytometry) was determined as 75%.

B5: anti-SIRPA antibody 18D5 (antibody, from another filing, V domains shown)
VH: QVQLQQPGAELVRPGSSVKLSCKASGYTFTSYWVHWVKQRPIQGLEWIGNIDPSDSDTHYNQKFKDKASLTVDKSSSTAYMQLSSLTFEDSAVYYCVRGGTGTMAWFAYWGQGTLVTVSA
VL: DVVMTQTPLSLPVSLGDQASISCRSSQSLVHSYGNTYLYWYLQKPGQSPKLLIYRVSNRFSGVPDRFSGSGSGTDFTLKISRVEAEDLGVYFCFQGTHVPYTFGSGTKLEIKR
In experiment [6], B5 displayed an EC50 (nM), phagocytosis of A375 cells by primary human macrophages of 2.15 nM and a Max, fold increase in phagocytosis over baseline activity of 1.06 fold.
